Assays:
[1] = tested on: OE19 esophageal cancer cells; assay: Antibody internalization (pHrodo Deep Red), OE19; type: cell-based
Procedure: Internalization of antibody 3C2B1 into HPAFII pancreatic cancer cells (FIGS. 5A-5G) and OE19 esophageal cancer cells (FIGS. 5H-5N) was detectable after 8 hours and nearly complete at 16 hours. The results are quantified in FIG. 5O.
Antibodies C2 and 3C2B1 were coupled to a pH sensitive fluorophore using the pHrodo Deep Red TFP Ester kit (Thermo cat #P35356), according to manufacturer instructions. Cancer cells were seeded at ˜50,000 cells/well onto μ-Slide 8-well tissue culture-treated, chambered coverslip wells (Ibidi 80806) in their recommended media with 10% FBS. Cells were cultured for 48 hours. Slides were transferred into microscope chamber (37° C.—5% CO2) and equilibrated for ˜30 minutes. The pHrodo Deep Red coupled antibody was then diluted to a concentration of 200 to 300 μg/mL into pre-warmed media supplemented with 10% FBS. Media was removed from the chamber slides and the diluted antibodies were separately added. […]
(§1) Internalization of the fluorescently labeled antibodies was quantified as follows. […] The integrated pixel density (mean gray-scale value×area) was then measured by the ImageJ software. Positively-stained cells were manually counted and the integrated pixel density was divided by the number of positive cells to yield “Pixel Intensity per positive cell”.

[2] = target: PSMGFR C-10 peptide (SEQ ID NO: 3) (Homo sapiens, UniProt P15941); assay: ELISA binding to PSMGFR C-10 peptide
Chain of PSMGFR C-10 peptide (SEQ ID NO: 3) (P15941 1110-1144 limits assumed): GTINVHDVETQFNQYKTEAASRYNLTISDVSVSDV
Description: Cancer selective anti-MUC1* antibodies bind to a membrane proximal conformational epitope within the MUC1* extracellular domain, as described in WO 2020/146902.
The 3C2B1 epitope was mapped more precisely with additional PSMGFR peptide variants (FIGS. 2A, 2B).

T47D-MUC1*45 cells = assay: Antibody internalization (pHrodo Deep Red), T47D-MUC1*45; type: cell-based, human
Procedure: (§2) Antibodies C2 and 3C2B1 were tested for their ability to be internalized by T47D breast cancer cells (T47D-wt) or T47D cells that were engineered to express high levels of a recombinant MUC1* polypeptide with a 45 amino acid extracellular domain (T47D-MUC1*45), as described in WO2010042562 and WO2010042891. […] C2 internalization was detected within 2.5 hours in T47D-wt cells (FIGS. 3A-3F) and was increased by MUC1*45 expression (FIGS. 3G-3L). […] Unexpectedly, MUC1*45 expression inhibited 3C2B1 internalization (FIG. 3S-3X).
(§3) Antibodies C2 and 3C2B1 were coupled to a pH sensitive fluorophore using the pHrodo Deep Red TFP Ester kit (Thermo cat #P35356), according to manufacturer instructions. Cancer cells were seeded at ˜50,000 cells/well onto μ-Slide 8-well tissue culture-treated, chambered coverslip wells (Ibidi 80806) in their recommended media with 10% FBS. Cells were cultured for 48 hours. Slides were transferred into microscope chamber (37° C.—5% CO2) and equilibrated for ˜30 minutes. […]
as §1

[3] = tested on: T47D breast cancer cells (T47D-wt); assay: Antibody internalization (pHrodo Deep Red), T47D-wt; type: cell-based, human
Procedure: as §2, §3, §1

[4] = tested on: pancreatic cancer specimens; assay: IHC of tissue microarray, pancreatic cancer; type: binding, human; settings: 40 specimens, antibodies at 15 μg/mL
Description: Tissue microarrays are typically made up of hundreds of tissue specimens, where each specimen in the array comes from a different patient. The breast cancer array contained patient specimens of all types of invasive breast cancers, including less common forms such as carcinomas with medullary features and papillary carcinomas. The lung cancer array contained specimens from patients diagnosed with squamous cell carcinoma, adenocarcinoma, mucinous adenocarcinoma, adenosquamous carcinoma and large cell carcinoma. The pancreatic cancer tissue microarray contained specimens from patients with ductal adenocarcinomas.
Similar to the lung cancer results, antibody 3C2B1 stained pancreatic cancers better than C2. Of the 40 specimens from 40 different pancreatic cancer patients, 27 were positively stained by C2, 3C2B1, or both. Eighteen (18) stained more robustly with 3C2B1 than C2 or were not stained by C2 at all. One specimen stained slightly better with C2 and 8 specimens stained essentially the same with either antibody.
Cancerous tissue arrays were purchased from Tissue Array (Derwood, MD). After deparaffinization, antigen retrieval (pH 6.0) was performed for 10 min. The sections incubated in blocking buffer (10% normal goat serum and 5% BSA in TBS) at room temperature for 1 hr before incubating in either C2 or 3C2B1 in 1% BSA-TBS overnight at 4° C. […]

B1: 3C2B1: anti-MUC1* monoclonal antibody that bound to the PSMGFR peptide (antibody, V domains shown)
VH: EVMLVESGGGLVKPGGSLKLSCAASGITFSTYTMSWVRQTPEKRLEWVATISTGGDKTYYSDSVKGRFTISRDNAKNNLYLQMSSLRSEDTALYYCARGTTAMYYYAMDYWGQGTSVTVSS
VL: DIVLTQSPASLAVSLGQRATISCRASKSISTSDYNYIHWYQQKPGQPPKLLIYLASNLESGVPARFSGSGSGTDFTLNIHPVEEEDAATYYCQHSRELPLTFGAGTKLELK
[1]
  time after which internalization was detectable: 8 h
  time at which internalization was nearly complete: 16 h
[2]
  binding to PSMGFR C-10: do not bind
T47D-MUC1*45 cells; T47D-MUC1*45 vs T47D-wt
  effect of MUC1*45 expression on internalization: inhibited
T47D-MUC1*45 cells; T47D-MUC1* cells, after 14 hours
  fraction of cells that internalized detectable antibody: Less than half
[3]
  internalization rate compared to C2: internalized more slowly
[4]
  3C2B1 > C2 (number of specimens stained better with 3C2B1): 18

From patent US20260137799A1, “ANTI-MUC1* ANTIBODY DRUG COMPLEXES AND USES THEREOF” (Minerva Biotechnologies Corporation, priority 2023, published 2026)
